The record followed here is US9845340B2, “Peptides that specifically bind HGF receptor (cMet) and uses thereof” (Dyax Corp., priority 2003, dated 2017).

In test [1] the target is cMet-Fc fusion protein (Homo sapiens, UniProt P08581). Description: Protein phage ELISA: peptide-displaying phage binding to soluble cMet-Fc versus TRAIL-Fc. The following applies: phage isolate; cMet-Fc vs. TRAIL-Fc. The method, then:
Protein phage ELISAs using peptide-displaying phage isolates from the various selection campaigns were performed to determine specificity of the peptides for cMet versus an unrelated Fc-fusion protein (TRAIL-Fc). Briefly, 384-well plates were coated overnight at 4 C with 0.5 μg/mL of cMet-Fc fusion protein or TRAIL-Fc fusion protein (background). The plates were blocked for 2 hours 37C with 3% (w/v) BSA in PBS containing 0.05% (v/v) Tween-20 (PBST). The plates were washed with PBST and 100 μL of peptide-displaying phage were added to each well. The plates were incubated for 2 hours at room temperature and washed with PBST. cMet-binding peptide-displaying phage were detected using an HRP-conjugated anti-M13 antibody.
In general terms: ELISA stands for enzyme-linked immunosorbent assay.

Test [2] addresses T1, 3T3 cells that over-express human cMet (Homo sapiens, UniProt P08581).
T1 construct: expressed in transfected cells; host or cells: 3T3 cells
Description: Whole cell ELISA of peptide-displaying phage. The test is classed as cell-based. The settings on record: phage isolate; 3T3 cells expressing human cMet vs. non-expressing 3T3 cells. The method, then: Whole cell ELISAs were performed using 3T3 cells that over-express human cMet. […] Briefly, 96-well plates were seeded with 10^5 cells per well. The plates were centrifuged for 5 minutes at 1600 rpm to pellet the cells. The resulting cell layer was fixed with 0.1% (v/v) glutaraldehyde for 12 minutes at 37 C. […] Peptide-displaying phage also were blocked in the above solution for 1 hour at 37 C. 100 μL of blocked phage was then added to each well and the plates were incubated for 1 hour at room temperature. The plates were washed with PBST. cMet-binding peptide-displaying phage were detected using an HRP-conjugated anti-M13 antibody.

Chain of cMet-Fc fusion protein (P08581 25-307 limits assumed): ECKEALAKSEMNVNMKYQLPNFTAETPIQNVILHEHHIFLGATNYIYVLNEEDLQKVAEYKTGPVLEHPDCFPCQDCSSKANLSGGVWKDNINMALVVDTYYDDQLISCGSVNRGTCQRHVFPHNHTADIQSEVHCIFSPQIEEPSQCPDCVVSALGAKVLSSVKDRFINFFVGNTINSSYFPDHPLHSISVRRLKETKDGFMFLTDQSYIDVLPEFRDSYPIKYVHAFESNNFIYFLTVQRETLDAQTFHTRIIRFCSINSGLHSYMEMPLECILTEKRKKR
Chain of cMet-Fc fusion protein (P08581 with tags, fused parts or gaps limits assumed): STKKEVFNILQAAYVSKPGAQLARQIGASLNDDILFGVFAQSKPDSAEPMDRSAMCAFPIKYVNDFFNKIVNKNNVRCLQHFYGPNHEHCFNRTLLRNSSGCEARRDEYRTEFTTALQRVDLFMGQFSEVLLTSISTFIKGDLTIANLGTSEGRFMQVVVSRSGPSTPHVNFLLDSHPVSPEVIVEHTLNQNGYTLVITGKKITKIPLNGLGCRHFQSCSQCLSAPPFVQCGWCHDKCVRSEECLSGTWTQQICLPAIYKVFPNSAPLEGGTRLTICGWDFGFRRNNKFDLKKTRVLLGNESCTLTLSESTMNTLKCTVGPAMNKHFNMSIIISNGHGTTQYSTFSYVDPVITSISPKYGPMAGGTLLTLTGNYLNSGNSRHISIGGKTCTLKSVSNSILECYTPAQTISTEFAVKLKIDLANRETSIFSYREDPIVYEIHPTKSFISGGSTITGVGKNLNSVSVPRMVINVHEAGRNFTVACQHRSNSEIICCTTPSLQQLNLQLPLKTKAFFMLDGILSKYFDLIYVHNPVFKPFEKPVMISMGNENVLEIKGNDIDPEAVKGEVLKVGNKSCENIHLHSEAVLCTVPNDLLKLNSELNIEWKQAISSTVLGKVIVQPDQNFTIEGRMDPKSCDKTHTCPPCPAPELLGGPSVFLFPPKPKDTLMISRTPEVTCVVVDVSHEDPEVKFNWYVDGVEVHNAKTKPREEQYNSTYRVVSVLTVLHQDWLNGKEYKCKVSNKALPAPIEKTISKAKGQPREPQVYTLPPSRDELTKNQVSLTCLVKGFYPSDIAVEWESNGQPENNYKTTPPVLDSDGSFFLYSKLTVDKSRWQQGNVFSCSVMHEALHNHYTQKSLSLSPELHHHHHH
T1 sequence (P08581 25-1390): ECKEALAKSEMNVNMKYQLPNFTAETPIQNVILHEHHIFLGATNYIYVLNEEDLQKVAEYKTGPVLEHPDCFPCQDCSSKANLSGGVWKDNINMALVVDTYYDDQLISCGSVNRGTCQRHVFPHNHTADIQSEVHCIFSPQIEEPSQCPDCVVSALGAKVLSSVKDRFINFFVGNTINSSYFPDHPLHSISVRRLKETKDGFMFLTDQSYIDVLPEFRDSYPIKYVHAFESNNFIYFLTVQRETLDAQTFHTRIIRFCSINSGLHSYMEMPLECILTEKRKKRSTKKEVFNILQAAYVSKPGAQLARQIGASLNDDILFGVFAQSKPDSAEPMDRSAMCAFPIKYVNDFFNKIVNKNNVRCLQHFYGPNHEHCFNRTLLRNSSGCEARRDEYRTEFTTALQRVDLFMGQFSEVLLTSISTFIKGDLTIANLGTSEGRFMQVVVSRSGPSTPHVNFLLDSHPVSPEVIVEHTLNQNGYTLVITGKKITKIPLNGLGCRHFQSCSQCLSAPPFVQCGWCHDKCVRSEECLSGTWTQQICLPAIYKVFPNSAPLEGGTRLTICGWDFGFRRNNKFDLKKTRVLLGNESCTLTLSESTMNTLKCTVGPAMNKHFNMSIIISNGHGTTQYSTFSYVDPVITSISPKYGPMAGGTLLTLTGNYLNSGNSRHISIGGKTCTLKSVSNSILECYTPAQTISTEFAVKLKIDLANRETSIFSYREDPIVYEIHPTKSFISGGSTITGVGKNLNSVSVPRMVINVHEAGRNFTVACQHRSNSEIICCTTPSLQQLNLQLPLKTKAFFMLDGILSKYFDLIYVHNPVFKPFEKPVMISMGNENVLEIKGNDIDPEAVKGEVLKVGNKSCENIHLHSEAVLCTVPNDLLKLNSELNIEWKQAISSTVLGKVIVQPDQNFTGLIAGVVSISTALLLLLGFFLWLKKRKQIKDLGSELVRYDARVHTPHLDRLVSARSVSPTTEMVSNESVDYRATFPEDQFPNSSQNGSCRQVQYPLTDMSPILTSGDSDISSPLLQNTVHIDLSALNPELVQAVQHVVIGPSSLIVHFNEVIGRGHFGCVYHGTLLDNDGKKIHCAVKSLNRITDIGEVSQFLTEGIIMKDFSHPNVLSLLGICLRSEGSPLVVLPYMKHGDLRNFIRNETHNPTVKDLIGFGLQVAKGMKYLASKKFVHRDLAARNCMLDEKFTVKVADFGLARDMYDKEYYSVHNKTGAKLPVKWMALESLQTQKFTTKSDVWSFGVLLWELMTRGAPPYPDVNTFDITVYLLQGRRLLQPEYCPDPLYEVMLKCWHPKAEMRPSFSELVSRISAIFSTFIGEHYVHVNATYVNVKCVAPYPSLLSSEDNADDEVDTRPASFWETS

Turning to “AQFPLEFDVPNFSYHWLVSFNP (Synthetically generated cMet-binding peptide sequence) [SEQ ID NO: 460]”, in test [1], the “Protein ELISA” value was found to be 5.6 fold over background. Also, in test [2], the “WC ELISA” value is 1.27 fold over background.
In the case of “GSDMNCTVLAQDQIFCFREAP (Synthetically generated cMet-binding peptide sequence) [SEQ ID NO: 386]”, in test [1], the “Protein ELISA” value was 3.0 fold over background. For the same compound, the “WC ELISA” value in test [2] is listed as 1.37 fold over background.
The corresponding values for “AQAEWVITSEEFYWKMADFGPP (Synthetically generated cMet-binding peptide sequence) [SEQ ID NO: 478]” are 3.4 fold over background and 1.23 fold over background.
As to “GSRFHCWQGDLMQTYCMPMAP (Synthetically generated cMet-binding peptide sequence) [SEQ ID NO: 376]”, the “Protein ELISA” value in test [1] was 3.0 fold over background. The “WC ELISA” value in test [2] was determined as 1.30 fold over background.
The corresponding values for “AGMTLCAGPPTFECYEVGT (Synthetically generated cMet-binding peptide sequence) [SEQ ID NO: 092]” are 12.3 fold over background and 1.23 fold over background.
For the compound “AGDHYCWEEWWFCWDSGT (Synthetically generated cMet-binding peptide sequence) [SEQ ID NO: 021]”, the “Protein ELISA” value in test [1] was found to be 3.5 fold over background. For the same compound, in test [2], the “WC ELISA” value was found to be 1.37 fold over background.
As to “GSTMSCWRWGRDAYSCNQMAP (Synthetically generated cMet-binding peptide sequence) [SEQ ID NO: 372]”, the “Protein ELISA” value in test [1] is recorded as 4.6 fold over background. Besides, the “WC ELISA” value in test [2] was 1.37 fold over background.
The corresponding values for “AQELFQILEKQMWSDFMEWATP (Synthetically generated cMet-binding peptide sequence) [SEQ ID NO: 474]” are 3.6 fold over background and 1.23 fold over background.
The corresponding values for “AGYFHCSGSPWFQCDYYGT (Synthetically generated cMet-binding peptide sequence) [SEQ ID NO: 081]” are 9.1 fold over background and 1.40 fold over background.
The corresponding values for “GDHLTCEFRDDGWKEHCWWSDP (Synthetically generated cMet-binding peptide sequence) [SEQ ID NO: 403]” are 11.1 fold over background and 1.23 fold over background.
For `CC(=O)N[C@@H](C)C(=O)N[C@@H](CCC(N)=O)C(=O)N[C@@H](CC(=O)O)C(=O)N[C@@H](CC(C)C)C(=O)N[C@@H](CCCCN)C(=O)N1CCC[C@H]1C(=O)N[C@@H](Cc1c[nH]c2ccccc12)C(=O)N[C@H](C(=O)N[C@@H](C)C(=O)NCC(=O)N[C@@H](Cc1c[nH]c2ccccc12)C(=O)N[C@@H](CCC(=O)O)C(=O)N1CCC[C@H]1C(=O)N1CCC[C@H]1C(=O)N[C@@H](Cc1c[nH]c2ccccc12)C(=O)N[C@@H](CC(C)C)C(=O)N[C@@H](Cc1c[nH]c2ccccc12)C(=O)N[C@H](C(=O)N[C@@H](CC(=O)O)C(=O)N[C@@H](CCCNC(=N)N)C(=O)NCC(=O)N1CCC[C@H]1C(=O)NCC(=O)NCC(=O)NCC(=O)N[C@@H](CCCCNC(=O)c1ccc2c(c1)C(=O)OC21c2ccc(O)cc2Oc2cc(O)ccc21)C(N)=O)[C@@H](C)O)[C@@H](C)O` [SEQ ID NO: 461], the “Protein ELISA” value in test [1] came to 5.0 fold over background. In addition, the “WC ELISA” value in test [2] is 1.30 fold over background.
As for “AGSTDCRGHPTFECWGWGT (Synthetically generated cMet-binding peptide sequence) [SEQ ID NO: 086]”, in test [1], the “Protein ELISA” value is on record as 5.2 fold over background. Moreover, the “WC ELISA” value in test [2] is 1.30 fold over background.
Turning to “AGKYMCEGFEWFCEMWGT (Synthetically generated cMet-binding peptide sequence) [SEQ ID NO: 037]”, the “Protein ELISA” value in test [1] is reported as 4.1 fold over background. Further, the “WC ELISA” value in test [2] is 1.43 fold over background.
